One assay relates to monkey PTK7 protein. The experiment in a line: Relative binding activity to monkey PTK7 by ELISA. The protocol:
(§1) Human PTK7 protein (Catalog No. PT7-H52H3, Acrobiosystems), monkey PTK7 protein (Catalog No. PT7-C52H3, Acrobiosystems), and murine PTK7 protein (Catalog No. PT7-M52H3, Acrobiosystems) were incubated at 4° C. overnight and immobilized onto a 96-well plate. The plate was then blocked by incubating at 37° C. with 1% BSA in PBS for 1 h. After blocking, the plate was washed 3 times with PBST (PBS containing 0.05% Tween 20). Serial dilutions of anti-PTK7 antibody as prepared in Example 2 of the present disclosure was prepared in a binding buffer (PBS containing 0.05% Tween20 and 0.5% BSA) and incubated with the immobilized proteins at 37° C. for 1 h. After binding, the plate was washed 3 times with PBST, incubated with peroxidase-labeled donkey anti-human IgG (Jackson ImmunoResearch) diluted at 1/15,000 in the binding buffer at 37° C. for 1 h, washed again, developed with TMB and terminated with 1M H2SO4. The absorbance at 450 nm-620 nm was measured.
A general note: In an ELISA, binding on a coated surface is turned into a signal by an enzyme label.

A further assay deals with T1, murine PTK7 protein (Mus musculus, UniProt Q8BKG3).
T1 construct: purchased Acrobiosystems PT7-M52H3
T1 sequence (Q8BKG3 23-1062): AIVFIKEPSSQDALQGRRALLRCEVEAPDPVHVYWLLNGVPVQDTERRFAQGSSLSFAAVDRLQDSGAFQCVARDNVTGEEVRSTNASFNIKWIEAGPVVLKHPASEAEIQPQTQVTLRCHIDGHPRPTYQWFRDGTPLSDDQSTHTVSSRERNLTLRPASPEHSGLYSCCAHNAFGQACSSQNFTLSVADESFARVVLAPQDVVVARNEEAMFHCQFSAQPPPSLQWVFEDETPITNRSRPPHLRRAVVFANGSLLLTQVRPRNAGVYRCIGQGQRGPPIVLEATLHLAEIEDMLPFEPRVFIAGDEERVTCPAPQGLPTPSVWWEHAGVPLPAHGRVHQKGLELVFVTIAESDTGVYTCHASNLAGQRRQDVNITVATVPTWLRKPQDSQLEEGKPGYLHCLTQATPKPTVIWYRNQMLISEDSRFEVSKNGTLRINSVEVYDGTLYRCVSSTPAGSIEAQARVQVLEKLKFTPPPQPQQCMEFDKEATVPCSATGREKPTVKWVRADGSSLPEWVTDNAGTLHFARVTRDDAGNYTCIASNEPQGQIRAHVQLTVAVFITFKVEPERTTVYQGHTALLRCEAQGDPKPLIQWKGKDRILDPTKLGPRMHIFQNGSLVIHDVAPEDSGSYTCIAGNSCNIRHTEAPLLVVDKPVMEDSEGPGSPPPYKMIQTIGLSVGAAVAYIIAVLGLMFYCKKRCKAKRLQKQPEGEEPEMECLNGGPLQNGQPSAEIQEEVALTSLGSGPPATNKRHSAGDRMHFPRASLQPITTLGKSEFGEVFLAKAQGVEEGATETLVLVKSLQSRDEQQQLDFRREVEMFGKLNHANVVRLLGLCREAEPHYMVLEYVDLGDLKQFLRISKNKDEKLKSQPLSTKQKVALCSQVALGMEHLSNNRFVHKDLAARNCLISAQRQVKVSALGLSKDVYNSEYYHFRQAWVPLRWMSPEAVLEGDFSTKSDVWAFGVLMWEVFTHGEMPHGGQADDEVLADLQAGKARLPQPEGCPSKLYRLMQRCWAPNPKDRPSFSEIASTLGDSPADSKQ
The experiment in a line: Relative binding activity to murine PTK7 by ELISA. To be noted: immobilized protein. The protocol:
as §1

A further assay addresses T2, Human PTK7 protein (Homo sapiens, UniProt Q13308).
T2 construct: purchased Acrobiosystems PT7-H52H3
T2 sequence (Q13308 31-1070): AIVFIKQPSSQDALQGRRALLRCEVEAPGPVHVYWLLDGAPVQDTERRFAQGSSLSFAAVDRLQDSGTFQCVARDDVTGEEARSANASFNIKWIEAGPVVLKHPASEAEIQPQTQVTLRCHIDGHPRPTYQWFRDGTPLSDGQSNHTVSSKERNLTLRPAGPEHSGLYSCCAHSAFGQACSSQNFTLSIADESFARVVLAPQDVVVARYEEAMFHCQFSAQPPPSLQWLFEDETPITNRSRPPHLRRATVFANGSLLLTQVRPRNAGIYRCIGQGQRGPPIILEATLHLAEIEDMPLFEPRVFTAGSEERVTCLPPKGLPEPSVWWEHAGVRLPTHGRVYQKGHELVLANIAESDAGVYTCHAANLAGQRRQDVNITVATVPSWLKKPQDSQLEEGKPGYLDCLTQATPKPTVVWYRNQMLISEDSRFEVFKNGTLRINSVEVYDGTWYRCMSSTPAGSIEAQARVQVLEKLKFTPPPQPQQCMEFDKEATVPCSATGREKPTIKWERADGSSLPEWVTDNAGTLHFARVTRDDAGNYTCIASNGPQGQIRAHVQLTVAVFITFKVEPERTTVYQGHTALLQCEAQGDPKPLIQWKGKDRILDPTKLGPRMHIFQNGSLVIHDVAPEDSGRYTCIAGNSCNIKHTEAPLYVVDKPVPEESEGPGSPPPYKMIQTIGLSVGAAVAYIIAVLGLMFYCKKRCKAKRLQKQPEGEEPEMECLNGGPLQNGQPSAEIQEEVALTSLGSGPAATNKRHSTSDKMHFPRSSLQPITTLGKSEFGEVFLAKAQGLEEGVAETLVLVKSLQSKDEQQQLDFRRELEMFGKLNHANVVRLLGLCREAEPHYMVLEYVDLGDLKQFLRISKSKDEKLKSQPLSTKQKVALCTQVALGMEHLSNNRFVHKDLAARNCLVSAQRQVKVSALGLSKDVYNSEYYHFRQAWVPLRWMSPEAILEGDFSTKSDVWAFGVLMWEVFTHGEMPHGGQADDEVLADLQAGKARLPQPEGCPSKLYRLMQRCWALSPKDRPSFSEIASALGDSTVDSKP
The experiment in a line: Relative binding activity to human PTK7 by ELISA. How it is done: as §1

B1: ch13: human-murine chimeric PTK7 antibody, VH SEQ ID NO: 20, VL SEQ ID NO: 19 (antibody, V domains shown)
VH: QVQLQQSGAELVRPGVSVKISCKGSGYTFTDYGMHWLKQSHAKSLEWIGVISPYYGDVTYNQKFKGKATMTVDKSSSTAYMELARLTSEDSAIYYCARGMGYWGQGTSVTVSS
VL: DVQITQSPSYLAASPGETITINCRASQSISKYLAWYQEKPGKTNKLLIYSGSTLQSGIPSRFSGSGSGTDFTLTISSLEPEDFAMYYCQQHNEYPWTFGGGTKLEIK
Consider B1, for which the “binding to monkey PTK7 protein” value in the assay with monkey PTK7 protein (immobilized protein) is given as “specifically bind”. Further, the “affinity compared with h6M24 (positive control antibody)” value with monkey PTK7 protein (monkey PTK7) and with Human PTK7 protein (human PTK7) was “significantly superior over that of h6M24” each time. Moreover, the “cross-reaction with mouse PTK7” value with murine PTK7 protein was “neither ch13 nor h6M24 antibodies cross-react”. Also, the “binding to human PTK7 protein” value with Human PTK7 protein (immobilized protein) is “specifically bind”.

The record behind these values is patent US12534541B2, “Anti-PTK7 antibody and uses thereof” (MABCARE THERAPEUTICS, priority 2023, dated 2026).
